Consider 4 molecules from publication PMC6038944 (Biochemistry, 2018).

The target in data set [1] is apo-transferrin (iron-free serotransferrin) (UniProt P02787). Description: SPR. The conditions noted are these: 150 mM NaCl, pH 7.4: 20 mM HEPES, pH 6.0: 20 mM PIPES.
Data set [2] deals with the molecule itself.

Sequence of apo-transferrin (iron-free serotransferrin) (P02787 whole entry): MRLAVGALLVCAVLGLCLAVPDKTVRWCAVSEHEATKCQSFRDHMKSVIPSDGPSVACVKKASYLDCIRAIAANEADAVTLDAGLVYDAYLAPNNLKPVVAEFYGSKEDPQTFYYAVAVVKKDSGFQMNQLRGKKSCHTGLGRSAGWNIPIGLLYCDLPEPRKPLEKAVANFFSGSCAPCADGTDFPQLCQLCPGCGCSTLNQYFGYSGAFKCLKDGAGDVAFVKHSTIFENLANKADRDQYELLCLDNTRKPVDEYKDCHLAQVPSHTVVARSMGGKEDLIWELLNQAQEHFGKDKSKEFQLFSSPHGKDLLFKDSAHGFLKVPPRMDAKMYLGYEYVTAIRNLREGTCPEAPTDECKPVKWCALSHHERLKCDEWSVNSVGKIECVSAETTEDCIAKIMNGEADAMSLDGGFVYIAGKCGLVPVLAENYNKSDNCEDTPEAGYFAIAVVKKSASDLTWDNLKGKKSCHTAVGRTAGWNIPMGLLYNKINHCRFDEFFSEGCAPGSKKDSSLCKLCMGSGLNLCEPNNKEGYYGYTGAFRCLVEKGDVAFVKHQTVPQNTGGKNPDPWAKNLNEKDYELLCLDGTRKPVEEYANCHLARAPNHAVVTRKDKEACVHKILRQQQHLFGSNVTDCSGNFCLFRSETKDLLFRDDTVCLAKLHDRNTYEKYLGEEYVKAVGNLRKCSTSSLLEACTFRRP

In the case of “EGFP-TfR1 (full-length transferrin receptor 1, EGFP fusion)”, in data set [1] (pH 6.0), the ka1 was 1.01e+06 M⁻¹ s⁻¹, the ka2 stood at 3.01e+06 M⁻¹ s⁻¹ and the kd1 was found to be 1.2 s⁻¹. In addition, in data set [1] (pH 7.4), the ka1 was 450000 M⁻¹ s⁻¹, the ka2 was determined as 19000 M⁻¹ s⁻¹ and the kd1 is 22000 s⁻¹.
In data set [1] (pH 6.0), “EGFP-TfR2 (full-length transferrin receptor 2, EGFP fusion)” came in with a ka1 of 150000 M⁻¹ s⁻¹, a ka2 of 34000 M⁻¹ s⁻¹, a kd1 of 1100 s⁻¹ and a kd2 of 643 s⁻¹. In data set [1] (pH 7.4), this molecule had a ka1 of 66000 M⁻¹ s⁻¹, a ka2 of 6300 M⁻¹ s⁻¹, a kd1 of 44000 s⁻¹ and a kd2 of 8160 s⁻¹.
In the case of “EGFP-TfR2-TfR1HD (TfR2 chimera carrying the TfR1 helical domain) helical domain swap: TfR2 637-801 replaced by TfR1 605-760”, in data set [1] (pH 6.0), the ka1 amounted to 160000 M⁻¹ s⁻¹, the ka2 was 1.03e+06 M⁻¹ s⁻¹, the kd1 came to 350 s⁻¹ and the kd2 is 4950 s⁻¹. Moreover, in data set [1] (pH 7.4), the ka1 was 510000 M⁻¹ s⁻¹, the ka2 turned out to be 163000 M⁻¹ s⁻¹, the kd1 amounted to 2500 s⁻¹ and the kd2 came to 78300 s⁻¹.

B1: full-length EGFP-TfR2 (transferrin receptor-2) (receptor, human, UniProt Q9UP52 1-801, looked up)
chain: MERLWGLFQRAQQLSPRSSQTVYQRVEGPRKGHLEEEEEDGEEGAETLAHFCPMELRGPEPLGSRPRQPNLIPWAAAGRRAAPYLVLTALLIFTGAFLLGYVAFRGSCQACGDSVLVVSEDVNYEPDLDFHQGRLYWSDLQAMFLQFLGEGRLEDTIRQTSLRERVAGSAGMAALTQDIRAALSRQKLDHVWTDTHYVGLQFPDPAHPNTLHWVDEAGKVGEQLPLEDPDVYCPYSAIGNVTGELVYAHYGRPEDLQDLRARGVDPVGRLLLVRVGVISFAQKVTNAQDFGAQGVLIYPEPADFSQDPPKPSLSSQQAVYGHVHLGTGDPYTPGFPSFNQTQFPPVASSGLPSIPAQPISADIASRLLRKLKGPVAPQEWQGSLLGSPYHLGPGPRLRLVVNNHRTSTPINNIFGCIEGRSEPDHYVVIGAQRDAWGPGAAKSAVGTAILLELVRTFSSMVSNGFRPRRSLLFISWDGGDFGSVGSTEWLEGYLSVLHLKAVVYVSLDNAVLGDDKFHAKTSPLLTSLIESVLKQVDSPNHSGQTLYEQVVFTNPSWDAEVIRPLPMDSSAYSFTAFVGVPAVEFSFMEDDQAYPFLHTKEDTYENLHKVLQGRLPAVAQAVAQLAGQLLIRLSHDRLLPLDFGRYGDVVLRHIGNLNEFSGDLKARGLTLQWVYSARGDYIRAAEKLRQEIYSSEERDERLTRMYNVRIMRVEFYFLSQYVSPADSPFRHIFMGRGDHTLGALLDHLRLLRSNSSGTPGATSSTGFQESRFRRQLALLTWTLQGAANALSGDVWNIDNNF
With B1, the “stoichiometry N” value in data set [2] worked out at 2.

A word on the stoichiometry N: it is the number of molecules, sites or subunits per partner or assembly.
